Measurements taken from patent publication US20240024479A1, “NK CELLS OR T CELLS EXPRESSING CHIMERIC HEMATOPOIETIC GROWTH FACTOR RECEPTORS AND METHODS OF USE” (The United States of America, as represented by the …, priority 2020, published 2024).
One block for each molecule: values may come before it.

Key:
[1] = test system: NK cells transduced to express MPL or MPL-IL2RB chimeric receptors; experiment: Phospho-STAT5 and phospho-S6 signaling in transduced NK cells; format: cell-based, human
[2] = test system: c-MPL transduced NK cells; experiment: Proliferation of c-MPL-expressing human NK cells with thrombopoietin mimetics; format: cell-based; conditions: 4-5 days culture
Experimental: FIGS. 16A-16C show proliferation of human NK cells transduced to express GFP and c-MPL cultured for 4-5 days with the indicated concentrations of thrombopoietin (FIG. 16A), romiplostim (FIG. 16B), or eltrombopag (FIG. 16C). […] Mean and SEM of results from 3 blood donors are shown.
NK cells from PBMC from three blood donors were stimulated and transduced to express GFP and c-MPL, then were cultured for 4-5 days with thrombopoietin, romiplostim, or eltrombopag.

[3] = target: human thrombopoietin receptor (c-MPL) expressed on transduced NK or T cells (human) (UniProt P40238); experiment: cell-based or functional assay
[4] = test system: primary human NK cells; experiment: Chimeric MPL-IL2RB constructs (lentiviral) in primary human NK cells, cell numbers with MPL ligands; format: cell-based; conditions: after 4 days; medium lacking cytokines; lentiviral vectors
Excerpt: (§1) Lentiviral and retroviral vectors expressing MPL-IL2RB and other chimeric MPL receptors: Lentiviral vectors were created by Vectorbuilder (IL, USA) by insertion of DNA sequences encoding EGFP and chimeric molecules including extracellular, transmembrane, and in some cases, proximal intracellular regions of human MPL (NM_005373.3) fused with partial intracellular domains from human IL2RB (NM_000878.5) using the linkages as shown in FIG. 17. Certain of these chimeric receptor sequences were also inserted into a gamma retroviral vector backbone also encoding EGFP or firefly luciferase. Analogous vectors encoding unmodified MPL (NM_005373.3) were used for comparison. […]
(§2) In vitro cell culture experiments with human NK cells expressing MPL-IL2RB: Approximately 2-4 days after transduction, NK cells were placed in culture with varied concentrations of eltrombopag (Selleckchem, TX, USA) or romiplostim (Amgen, CA, USA); where concentrations are not indicated, 0.33 ug/mL eltrombopag or 1.5 ng/mL romiplostim were used. […] Numbers of GFP^+ cells were quantitated after 4-6 days (or indicated durations) using a BD Fortessa flow cytometer (BD Biosciences, NJ, USA) and compared with initial numbers to determine the fold expansion.

[5] = test system: K562 target cells; experiment: Degranulation and cytokine production of NK cells expressing MPL-IL2RB or MPL with K562 targets; format: cell-based, human; conditions: for degranulation of cytotoxic granules in response to K562 target cells: 4-day exposure to eltrombopag or romiplostim; for production of IFN-gamma and TNF: culture with eltrombopag or romiplostim and exposure to K562 targets
Experimental: To examine degranulation, cells were washed after two hours and stained with anti-CD107a (H4A3) (BioLegend). To assay cytokine production, GolgiPlug and GolgiStop (BD Biosciences) were added at manufacturer's recommended concentrations within the first hour of co-culture with K562. After 4 hours, cells were washed and stained for cell surface markers, then stained intracellularly with mAb recognizing TNF-α (Mab 11) and IFN-γ (B27) (BD Biosciences).
(§3) In vitro cell culture experiments with human NK cells expressing MPL-IL2RB: Approximately 2-4 days after transduction, NK cells were placed in culture with varied concentrations of eltrombopag (Selleckchem, TX, USA) or romiplostim (Amgen, CA, USA); where concentrations are not indicated, 0.33 ug/mL eltrombopag or 1.5 ng/mL romiplostim were used. Medium and drugs were refreshed by addition of new medium or by changing half the culture volumes every 2-4 days. Numbers of GFP^+ cells were quantitated after 4-6 days (or indicated durations) using a BD Fortessa flow cytometer (BD Biosciences, NJ, USA) and compared with initial numbers to determine the fold expansion.

[6] = test system: primary human NK cells; experiment: Time course of survival/proliferation of NK cells expressing MPL-IL2RB (retroviral); format: cell-based; conditions: varied concentrations of eltrombopag, romiplostim or thrombopoietin; retroviral vectors
Excerpt: as §1, §2

[7] = test system: Human NK cells; experiment: Matrix of IL-2 and eltrombopag concentrations, NK cell numbers after 6 days; format: cell-based; conditions: for proliferation in the presence of eltrombopag at high IL-2 concentrations compared with IL-2 alone: 6 days
Experimental: as §3

Molecule: romiplostim
- phosphorylated ribosomal protein S6 responses (mTOR activation) ([1]; NK cells expressing either MPL-IL2RB or MPL): induced
- phosphorylated STAT5 ([1]; eltrombopag 0.33 μg/ml or romiplostim 1.5 ng/mL, compared with 5 U/mL IL-2): shorter dilution pSTAT5 response
- proliferation of c-MPL transduced NK cells [2]: induce proliferation

- Bcl-2 RMFI in c-MPL+ NK-92 cells with TPO [3]: 64.5 RMFI
- Bcl-xL RMFI in c-MPL+ NK-92 cells with TPO [3]: 4.52 RMFI
- CD107a degranulation of GFP+ MPL+ primary NK cells against K562, TPO plus 25 U/ml IL-2 [3]: 83%
- GFP fold-expansion of c-MPL transduced primary T cells, TPO alone, day 6 [3]: 5.96 fold
- average percentage of GFP+ MPL+ cells among recovered human cells in blood and spleen of TPO-treated NSG mice (about 10% injected) [3]: 15%
- average percentage of GFP+ MPL+ cells among recovered human cells in liver and lung of TPO-treated NSG mice (about 10% injected) [3]: 20%
- expansion of c-MPL+ activated T cells, TPO plus LD IL-2, day 6 [3]: 6 to 11.4 fold
- fold change of GFP+ c-MPL+ primary NK cells, TPO plus 10 U/ml IL-2, day 6 [3]: 24.3 fold
- fold change of GFP+ c-MPL+ primary NK cells, TPO plus 25 U/ml IL-2, day 6 [3]: 34.1 fold
- fold expansion of c-MPL+ NK-92 cells with TPO alone, day 8 [3]: 7 fold
- fold expansion of c-MPL+ NK-92 cells, TPO plus 1 U/ml IL-2, day 8 [3]: 23.2 fold
- mean percentage of dead Raji cells, c-MPL+ NK-92 cells exposed to TPO plus LD IL-2, E:T 1:1 [3]: 84%
- mean percentage of dead Raji cells, c-MPL+ NK-92 cells exposed to TPO plus LD IL-2, E:T 10:1 [3]: 85%
- pS6 expression (RMFI) in c-MPL+ NK-92 cells, TPO plus LD IL-2 [3]: 11.8 RMFI
- percentage of GFP+ MPL+ cells in parallel in vitro cultures of the mixed cells with only TPO [3]: 31%
Molecule: recombinant human thrombopoietin (rhTPO) (from UniProt P40225 22-353) (ligand)

B1: MPL-IL2RB: chimeric receptor, SEQ ID NO: 8 (amino acids 1-582, c-MPL; amino acids 583-801, IL2RB) (protein)
chain: MPSWALFMVTSCLLLAPQNLAQVSSQDVSLLASDSEPLKCFSRTFEDLTCFWDEEEAAPSGTYQLLYAYPREKPRACPLSSQSMPHFGTRYVCQFPDQEEVRLFFPLHLWVKNVFLNQTRTQRVLFVDSVGLPAPPSIIKAMGGSQPGELQISWEEPAPEISDFLRYELRYGPRDPKNSTGPTVIQLIATETCCPALQRPHSASALDQSPCAQPTMPWQDGPKQTSPSREASALTAEGGSCLISGLQPGNSYWLQLRSEPDGISLGGSWGSWSLPVTVDLPGDAVALGLQCFTLDLKNVTCQWQQQDHASSQGFFYHSRARCCPRDRYPIWENCEEEEKTNPGLQTPQFSRCHFKSRNDSIIHILVEVTTAPGTVHSYLGSPFWIHQAVRLPTPNLHWREISSGHLELEWQHPSSWAAQETCYQLRYTGEGHQDWKVLEPPLGARGGTLELRPRSRYRLQLRARLNGPTYQGPWSSWSDPTRVETATETAWISLVTALHLVLGLSAVLGLLLLRWQFPAHYRRLRHALWPSLPDLHRVLGQYLRDTAALSPPKATVSDTCEEVEPSLLEILPKSSERTPLPLVTQLLLQQDKVPEPASLSSNHSLTSCFTNQGYFFFHLPDALEIEACQVYFTYDPYSEEDPDEGVAGAPTGSSPQPLQPLSGEDDAYCTFPSRDDLLLFSPSLLGGPSPPSTAPGGSGAGEERMPPSLQERVPRDWDPQPLGPPTPGVPDLVDFQPPPELVLREAGEEVPDAGPREGVSFPWSRPPGQGEFRALNARLPLNTDAYLSLQELQGQDPTHLV
- NK cell numbers in presence of eltrombopag or romiplostim [4]: greater cell numbers than MPL-expressing NK cells
- intracellular signals (pSTAT5, pS6) induced via receptor ([1]; compared with MPL): comparable to those triggered by MPL
- degranulation of cytotoxic granules in response to K562 target cells [5]: augmented degranulation
- production of IFN-gamma and TNF [5]: augmented production
- fold change in cell numbers [6]: greater fold change in cell numbers
- proliferation in the presence of eltrombopag at high IL-2 concentrations compared with IL-2 alone [7]: comparable numbers
- NK cell numbers after 6 days ([7]; low concentrations of IL-2, with eltrombopag): greater numbers

B2: MPL: unmodified human MPL (NM_005373.3), SEQ ID NO: 1, expressed in NK cells for comparison (protein, listed as Homo sapiens)
chain: MPSWALFMVTSCLLLAPQNLAQVSSQDVSLLASDSEPLKCFSRTFEDLTCFWDEEEAAPSGTYQLLYAYPREKPRACPLSSQSMPHFGTRYVCQFPDQEEVRLFFPLHLWVKNVFLNQTRTQRVLFVDSVGLPAPPSIIKAMGGSQPGELQISWEEPAPEISDFLRYELRYGPRDPKNSTGPTVIQLIATETCCPALQRPHSASALDQSPCAQPTMPWQDGPKQTSPSREASALTAEGGSCLISGLQPGNSYWLQLRSEPDGISLGGSWGSWSLPVTVDLPGDAVALGLQCFTLDLKNVTCQWQQQDHASSQGFFYHSRARCCPRDRYPIWENCEEEEKTNPGLQTPQFSRCHFKSRNDSIIHILVEVTTAPGTVHSYLGSPFWIHQAVRLPTPNLHWREISSGHLELEWQHPSSWAAQETCYQLRYTGEGHQDWKVLEPPLGARGGTLELRPRSRYRLQLRARLNGPTYQGPWSSWSDPTRVETATETAWISLVTALHLVLGLSAVLGLLLLRWQFPAHYRRLRHALWPSLPDLHRVLGQYLRDTAALSPPKATVSDTCEEVEPSLLEILPKSSERTPLPLCSSQAQMDYRRLQPSCLGTMPLSVCPPMAESGSCCTTHIANHSYLPLSYWQQP
- NK cell numbers in presence of eltrombopag or romiplostim [4]: greater cell numbers
- degranulation of cytotoxic granules in response to K562 target cells [5]: augmented degranulation
- production of IFN-gamma and TNF [5]: augmented production
- proliferation in the presence of eltrombopag at high IL-2 concentrations compared with IL-2 alone [7]: deficit in proliferation
